Results on four molecules are retold here after patent EP3409295A1 (priority 2016, dated 2017).

Data set [1] relates to ICR mice. To be noted: mouse, in vivo, iv.
The test system of data set [2] is ICR mice. Kind of data set: Tail flick test (heat radiation pain tester). It is filed as in vivo. Conditions: tail vein, morphine 5 mg/kg, other doses as in the writhing test. For orientation: Hot-plate and tail-flick tests time the reaction to a heat stimulus.
A further data set deals with rats. To be noted: rat, in vivo.
For data set [3], the system named is ICR mice. Conditions: mouse, in vivo, iv, 10 mg/kg.
A further data set is described as follows: in vivo. Conditions: female, SD, rat, iv, 5 mg/kg.
The conditions of data set [4]: SD rats.
Setting [5] is: intravenous administration, 10 mg/kg.

Read-outs that look alike come from different tables or passages of the source.

Regarding `COc1ccc2c3c1O[C@H]1[C@@H](O)C=C[C@H]4[C@@H](C2)N(C)CC[C@@]341` [Codeine, codeine], the “Number of Writhing” value in the data set on ICR mice [1] (30 mg/kg) was 13.4±3.1.
As for `CN1CC[C@]23c4c5ccc(O)c4O[C@H]2[C@@H](O)C=C[C@H]3[C@H]1C5` [Morphine, morphine], the “Number of Writhing” value in the data set with ICR mice [1] (5 mg/kg) came to 10.2±2.1. For the same molecule, the Heat pain value in the data set on ICR mice [2] (0 hr (base value before administration)) turned out to be 14.0 ± 2.2 s; with ICR mice [2] (0.25 hr after administration), 22.7 ± 5.1 s; in the data set on ICR mice [2] (1hr after administration) it was 42.4 ± 5.1 s; with ICR mice [2] (2 hr after administration), 29.0 ± 4.7 s; in the data set with ICR mice [2] (6 hr after administration), 13.5 ± 1.2 s; in the data set on ICR mice [2] (24 hr after administration), 13.8 ± 1.5 s. Further, the Nose-pokes in the data set on rats was 24.0±2.2.
For `COc1ccc2c3c1O[C@H]1C(=O)CC[C@@]4(O)[C@@H](C2)N(C)CC[C@]314` [Oxycodone, oxycodone], the “Number of Writhing” value with ICR mice [1] (5 mg/kg) turned out to be 9.9±3.2.
For orientation: Vss means the apparent volume that relates the amount in the body to the concentration in plasma or blood. Low readings indicate confinement near the circulation, high ones extensive tissue distribution. One may read the Vz as the apparent volume that relates the amount in the body to the concentration in plasma or blood. Low readings indicate little distribution into tissue, high ones wide distribution into tissue. As a reminder, the Tmax is the time from dosing to the highest level. For the molecule `CN1CC[C@]23c4c5ccc(O)c4O[C@H]2[C@@H](OCCOCCOCCOCCOCCOCCO[C@H]2C=C[C@H]4[C@H]6Cc7ccc(O)c8c7[C@@]4(CCN6C)[C@H]2O8)C=C[C@H]3[C@H]1C5` [α-6-O-PEG6-(morphine)2], the “Number of Writhing” value in the data set on ICR mice [3] worked out at 24.3±3.4. In “in vivo”, this molecule registered a level at 10 min of 1200 ng/mL, a level at 1 h of 123 ng/mL, a level at 3 h of 72 ng/mL and a tissue level at time at 10 min of 163 ng/g. In the data set “in vivo”, this molecule displayed a tissue level at time at 1 h of 133 ng/g and a tissue level at time at 3 h of 111 ng/g. In data set [4] (setting [5]), the AUCINF turned out to be 158 ng·h/mL, the AUClast was found to be 144 ng·h/mL, the CL came out at 204 mL/min/k g and the MRTINF came out at 3.22 h. In data set [4] (setting [5]), this molecule displayed a T1/2 of 3.42 h, a Vss of 38.6 L/kg and a volume of distribution (Vz) of 57.7 L/kg. In data set [4] (oral 50 mg/kg versus intravenous 10 mg/kg), the F turned out to be 21.2%. Moreover, in data set [4] (oral administration, 50 mg/kg), the AUCINF is 84 ng·h/mL, the AUClast is 73 ng·h/mL, the Cmax is on record as 54 and the T1/2 stood at 4.8 h. Also, in data set [4] (oral administration, 50 mg/kg), the Tmax amounted to 3 h.
